Biological target: the molecule itself
Assay: SEC-MALS; 1.0 mg/mL protein on HiLoad 16/60 Superdex 75 in 10 mM Tris-HCl pH 7.5, 150 mM NaCl, 0.75 mL/min, 25 °C; monomer to dimer

B1: SMA immunoglobulin light chain variable domain (kappa 4), recombinant (domain or fragment)
VL: not shown
notes: 114 amino acid kappa 4 light chain variable domain SMA, first extracted as amyloid fibrils from a patient with AL amyloidosis; The C-terminal Lys-His8 of pOPINO was removed by a premature stop codon; the ompA leader is cleaved; also called VL SMA; source: E. coli C41 (DE3), periplasmic expression, osmotic shock, purified (isoelectric precipitation, cation exchange, SEC); not shown: ompA leader …
stoichiometry N: 2

B2: LEN immunoglobulin light chain variable domain (kappa 4), recombinant (domain or fragment)
VL: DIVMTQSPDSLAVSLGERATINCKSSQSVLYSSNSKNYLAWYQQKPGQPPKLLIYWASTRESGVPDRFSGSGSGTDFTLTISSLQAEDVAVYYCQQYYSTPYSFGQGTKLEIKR
notes: 114 amino acid kappa 4 light chain variable domain of the Bence Jones protein LEN, from a patient with multiple myeloma; The C-terminal Lys-His8 of pOPINO was removed by a premature stop codon; removal of the ompA leader was confirmed by mass spectrometry, so the protein has no added residues; also called VL LEN; source: E. coli C41 (DE3), periplasmic expression, osmotic shock, purified …
stoichiometry N: 2
